Changes are numbered by the printed parent chain.
Tests used:
Type in all cases: biochemical
[1] = HTP-analysis of yeast culture supernatants, no challenge (MUGal hydrolysis); details: activity of the variant/activity of Rd3BB (SEQ ID NO: 13), yeast culture supernatant
In short: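 GLA variants were expressed in INVSc1 yeast grown in SD-Ura broth with glucose at 30° C., and culture supernatants were collected after 66-84 h. Supernatant was mixed with McIlvaine buffer pH 4.8 and MUGal (2 mM stock) in 50 mM citrate, 200 mM KCl, pH 4.6, incubated at 37° C. for 30-180 minutes, then quenched with sodium carbonate.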

[2] = HTP-analysis of supernatants pretreated with acid (MUGal hydrolysis); details: challenge at pH 4.0; activity of the variant/activity of Rd3BB (SEQ ID NO: 13); yeast culture supernatant
In short: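 GLA variants were secreted from INVSc1 yeast grown 66-84 h at 30° C. in SD-Ura with 2% glucose; supernatants were mixed with McIlvaine buffer pH 3.3-4.3 and held at 37° C. for 1-3 h. Residual activity on MUGal at pH 4.8 was then measured by fluorescence.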

[3] = HTP-analysis of supernatants pretreated with base (MUGal hydrolysis); details: challenge at pH 8.2; activity of the variant/activity of Rd3BB (SEQ ID NO: 13); yeast culture supernatant
In short: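 Fluorescence of released 4-MU (Ex 355 nm, Em 448 nm) after carbonate quench reports MUGal hydrolysis by GLA variants secreted from INVSc1 yeast. Before the acidic (pH 4.3-4.8) 30-180 min reaction at 37° C, supernatants had been pre-incubated at pH 7.0-9.7 for 1-18 h at 37° C.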

[4] = HTP-analysis of supernatants pretreated with bovine serum (MUGal hydrolysis); details: activity of the variant/activity of Rd3BB (SEQ ID NO: 13), yeast culture supernatant
In short: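 Yeast INVSc1 culture supernatants containing secreted GLA variants were mixed with bovine serum (20:80) and held 1 h at 37° C. Serum-treated samples then reacted with MUGal (4 mM stock) in citrate/McIlvaine buffer (pH 4.3/4.8) for 180 min at 37° C., were quenched with sodium carbonate, and read by fluorescence (Ex 355, Em 448 nm).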

B1: 315 (protein)
chain: LDNGLARTPTMGWLHWERFMCNLDCQEEPDSCISEKLFMEMAELMVSEGWKDAGYEYLCIDDCWMAPQRDSEGRLQADPQRFPHGIRQLANYVHSKGLKFGIYADVGNKTCAGFPGSFGYYDIDAQTFADWGVDLLKFDGCYCDSLENLADGYKHMSLALNRTGRSIVYSCEWPLYMWPFQKPNYTEIRQYCNHWRNFADIDDSWASVKSILDWTSFNQERIVDVAGPGGWNDPDMLVIGNFGLSWNQQVTQMALWAIMAAPLFMSNDLRHISPQAKALLQDKDVIAINQDPLGKQGYQLRKGDNFEVWERPLSGLAWAVAVINRQEIGGPRSYTIAVASLGKGVACNPACFITQLLPVKRKLGLYNWTSRLKSHVNPTGTVLLQLENTMQMSLKDLL
modifications: Synthetic Polypeptide sequence of Variant No. 315 of mature Human GLA
With B1 the “Relative Activity of GLA Variants After No Challenge (NC)” value [1] was “+ (+ = 0.5 to 1.5 relative activity over Rd3BB (SEQ ID NO: 13))”, the “Relative Activity of GLA Variants After Challenge at pH 4.0” value (“Relative Activity … at pH 4.0” for short) [2] was “+ (+ = 0.5 to 1.5 relative activity over Rd3BB (SEQ ID NO: 13))” and the “Relative Activity of GLA Variants After Challenge at pH 8.2” value (shortened to “Relative Activity … at pH 8.2”) [3] was “+ (+ = 0.5 to 1.5 relative activity over Rd3BB (SEQ ID NO: 13))”. The “Relative Activity of GLA Variants After Challenge with Serum” value (“Relative Activity … with Serum” below) [4] was “+ (+ = 0.5 to 1.5 relative activity over Rd3BB (SEQ ID NO: 13))”.

B2: 318 (protein)
chain: B1 chain with R221T, K302Q, L365F
modifications: Synthetic Polypeptide sequence of Variant No. 318 of mature Human GLA
For B2, the “Relative Activity of GLA Variants After No Challenge (NC)” value [1] was “+ (+ = 0.5 to 1.5 relative activity over Rd3BB (SEQ ID NO: 13))”, the “Relative Activity … at pH 4.0” value [2] was “+ (+ = 0.5 to 1.5 relative activity over Rd3BB (SEQ ID NO: 13))” and the “Relative Activity … at pH 8.2” value [3] was “++ (++ = >1.5 to 2.5 relative activity over Rd3BB (SEQ ID NO: 13))”. For the same molecule, the “Relative Activity … with Serum” value [4] was “+ (+ = 0.5 to 1.5 relative activity over Rd3BB (SEQ ID NO: 13))”.

B3: 317 (protein)
chain: B1 chain with R221K, K302Q, K343D, V376I
modifications: Synthetic Polypeptide sequence of Variant No. 317 of mature Human GLA
With B3 the “Relative Activity of GLA Variants After No Challenge (NC)” value [1] was “+ (+ = 0.5 to 1.5 relative activity over Rd3BB (SEQ ID NO: 13))”, the “Relative Activity … at pH 4.0” value [2] was “+ (+ = 0.5 to 1.5 relative activity over Rd3BB (SEQ ID NO: 13))” and the “Relative Activity … at pH 8.2” value [3] was “− (− = <0.5 relative activity to Rd3BB (SEQ ID NO: 13))”. The “Relative Activity … with Serum” value [4] was “− (− = <0.5 relative activity to Rd3BB (SEQ ID NO: 13))”.

B4: 316 (protein)
chain: B1 chain with R221K, K302Q, K343D, L365F, V376I
modifications: Synthetic Polypeptide sequence of Variant No. 316 of mature Human GLA
For B4, the “Relative Activity of GLA Variants After No Challenge (NC)” value [1] was “+ (+ = 0.5 to 1.5 relative activity over Rd3BB (SEQ ID NO: 13))”, the “Relative Activity … at pH 4.0” value [2] was “+ (+ = 0.5 to 1.5 relative activity over Rd3BB (SEQ ID NO: 13))” and the “Relative Activity … at pH 8.2” value [3] was “+ (+ = 0.5 to 1.5 relative activity over Rd3BB (SEQ ID NO: 13))”. The “Relative Activity … with Serum” value [4] was “+ (+ = 0.5 to 1.5 relative activity over Rd3BB (SEQ ID NO: 13))”.

B5: 309 (protein)
chain: LDNGLARTPTMGWLHWERFMCNLDCQEEPDSCISEKLFMEMAELMVSEGWKDAGYEYLCIDDCWMAPQRDSEGRLQADPQRFPHGIRQLANYVHSIGLKLGIYADVGNKTCAGFPGSFGYYDIDAQTFADWGVDLLKFDGCYCDSLENLADGYKHMSLALNRTGRSIVYSCEWPLYMWPFQKPNYTEIRQYCNHWRNFADIDDSWASIKSILDWTSRNQERIVDVAGPGGWNDPDMLVIGNFGLSWDQQVTQMALWAIMAAPLFMSNDLRHISPQAKALLQDKDVIAINQDPLGKQGYQLRKGDNFEVWERPLSGLAWAVAIINRQEIGGPRSYTIPVASLGGGVACNPGCFITQLLPVKRKLGFYNWTSRLKSHINPTGTVLLQLENTMQMSLKDLL
modifications: Synthetic Polypeptide sequence of Variant No. 309 of mature Human GLA
For B5, the “Relative Activity of GLA Variants After No Challenge (NC)” value [1] was “+ (+ = 0.5 to 1.5 relative activity over Rd3BB (SEQ ID NO: 13))”, the “Relative Activity … at pH 4.0” value [2] was “++ (++ = >1.5 to 2.5 relative activity over Rd3BB (SEQ ID NO: 13))” and the “Relative Activity … at pH 8.2” value [3] was “+++ (+++ = >2.5 relative activity over Rd3BB (SEQ ID NO: 13))”. For the same molecule, the “Relative Activity … with Serum” value [4] was “++ (++ = >1.5 to 2.5 relative activity over Rd3BB (SEQ ID NO: 13))”.

B6: 314 (protein)
chain: B1 chain with N247D, K343D, L365F
modifications: Synthetic Polypeptide sequence of Variant No. 314 of mature Human GLA
In the case of B6, the “Relative Activity of GLA Variants After No Challenge (NC)” value [1] is reported as “+ (+ = 0.5 to 1.5 relative activity over Rd3BB (SEQ ID NO: 13))”, the “Relative Activity … at pH 4.0” value [2] is reported as “++ (++ = >1.5 to 2.5 relative activity over Rd3BB (SEQ ID NO: 13))” and the “Relative Activity … at pH 8.2” value [3] is reported as “++ (++ = >1.5 to 2.5 relative activity over Rd3BB (SEQ ID NO: 13))”. For the same molecule, the “Relative Activity … with Serum” value [4] was “+ (+ = 0.5 to 1.5 relative activity over Rd3BB (SEQ ID NO: 13))”.

B7: 319 (protein)
chain: B1 chain with V208I, K302Q, V322I, L365F
modifications: Synthetic Polypeptide sequence of Variant No. 319 of mature Human GLA
For B7, the “Relative Activity of GLA Variants After No Challenge (NC)” value [1] was “+ (+ = 0.5 to 1.5 relative activity over Rd3BB (SEQ ID NO: 13))”, the “Relative Activity … at pH 4.0” value [2] was “+ (+ = 0.5 to 1.5 relative activity over Rd3BB (SEQ ID NO: 13))” and the “Relative Activity … at pH 8.2” value [3] was “+ (+ = 0.5 to 1.5 relative activity over Rd3BB (SEQ ID NO: 13))”. For the same molecule, the “Relative Activity … with Serum” value [4] was “+ (+ = 0.5 to 1.5 relative activity over Rd3BB (SEQ ID NO: 13))”.

B8: 311 (protein)
chain: B5 chain with R217F, L316D, G343K, T369S
modifications: Synthetic Polypeptide sequence of Variant No. 311 of mature Human GLA
For B8, the “Relative Activity of GLA Variants After No Challenge (NC)” value [1] was “+ (+ = 0.5 to 1.5 relative activity over Rd3BB (SEQ ID NO: 13))”, the “Relative Activity … at pH 4.0” value [2] was “+ (+ = 0.5 to 1.5 relative activity over Rd3BB (SEQ ID NO: 13))” and the “Relative Activity … at pH 8.2” value [3] was “++ (++ = >1.5 to 2.5 relative activity over Rd3BB (SEQ ID NO: 13))”. For the same molecule, the “Relative Activity … with Serum” value [4] was “+ (+ = 0.5 to 1.5 relative activity over Rd3BB (SEQ ID NO: 13))”.

B9: 320 (protein)
chain: B1 chain with V208I, N247D, V322I, L365F, V376I
modifications: Synthetic Polypeptide sequence of Variant No. 320 of mature Human GLA
With B9 the “Relative Activity of GLA Variants After No Challenge (NC)” value [1] was “+ (+ = 0.5 to 1.5 relative activity over Rd3BB (SEQ ID NO: 13))”, the “Relative Activity … at pH 4.0” value [2] was “+ (+ = 0.5 to 1.5 relative activity over Rd3BB (SEQ ID NO: 13))” and the “Relative Activity … at pH 8.2” value [3] was “+ (+ = 0.5 to 1.5 relative activity over Rd3BB (SEQ ID NO: 13))”. For the same molecule, the “Relative Activity … with Serum” value [4] was “+ (+ = 0.5 to 1.5 relative activity over Rd3BB (SEQ ID NO: 13))”.

B10: 310 (protein)
chain: B5 chain with R217F, K302Q, P337A, G343K, T369S
modifications: Synthetic Polypeptide sequence of Variant No. 310 of mature Human GLA
With B10 the “Relative Activity of GLA Variants After No Challenge (NC)” value [1] was “− (− = <0.5 relative activity to Rd3BB (SEQ ID NO: 13))”, the “Relative Activity … at pH 4.0” value [2] was “+ (+ = 0.5 to 1.5 relative activity over Rd3BB (SEQ ID NO: 13))” and the “Relative Activity … at pH 8.2” value [3] was “+ (+ = 0.5 to 1.5 relative activity over Rd3BB (SEQ ID NO: 13))”. The “Relative Activity … with Serum” value [4] was “+ (+ = 0.5 to 1.5 relative activity over Rd3BB (SEQ ID NO: 13))”.

B11: 312 (protein)
chain: B5 chain with R217F, L316D, G343K, K362Q
modifications: Synthetic Polypeptide sequence of Variant No. 312 of mature Human GLA
With B11 the “Relative Activity of GLA Variants After No Challenge (NC)” value [1] was “++ (++ = >1.5 to 2.5 relative activity over Rd3BB (SEQ ID NO: 13))”, the “Relative Activity … at pH 4.0” value [2] was “+++ (+++ = >2.5 relative activity over Rd3BB (SEQ ID NO: 13))” and the “Relative Activity … at pH 8.2” value [3] was “+++ (+++ = >2.5 relative activity over Rd3BB (SEQ ID NO: 13))”. The “Relative Activity … with Serum” value [4] was “+++ (+++ = >2.5 relative activity over Rd3BB (SEQ ID NO: 13))”.

B12: 313 (protein)
chain: B1 chain with A125S, R221K, V322I, K343G, L365F, V376I
modifications: Synthetic Polypeptide sequence of Variant No. 313 of mature Human GLA
With B12 the “Relative Activity of GLA Variants After No Challenge (NC)” value [1] was “+ (+ = 0.5 to 1.5 relative activity over Rd3BB (SEQ ID NO: 13))”, the “Relative Activity … at pH 4.0” value [2] was “+ (+ = 0.5 to 1.5 relative activity over Rd3BB (SEQ ID NO: 13))” and the “Relative Activity … at pH 8.2” value [3] was “− (− = <0.5 relative activity to Rd3BB (SEQ ID NO: 13))”. For the same molecule, the “Relative Activity … with Serum” value [4] was “+ (+ = 0.5 to 1.5 relative activity over Rd3BB (SEQ ID NO: 13))”.
